# Test results taken from patent US20130149236A1 (MacroGenics, published 2013).
# T1: soluble B7H3-2Ig (human, UniProt Q5ZPR3 29-466)
# T1 construct: Soluble or immobilized 2Ig form; also called 2Ig-B7-H3; B7-H3 (2Ig form)
# T1 sequence: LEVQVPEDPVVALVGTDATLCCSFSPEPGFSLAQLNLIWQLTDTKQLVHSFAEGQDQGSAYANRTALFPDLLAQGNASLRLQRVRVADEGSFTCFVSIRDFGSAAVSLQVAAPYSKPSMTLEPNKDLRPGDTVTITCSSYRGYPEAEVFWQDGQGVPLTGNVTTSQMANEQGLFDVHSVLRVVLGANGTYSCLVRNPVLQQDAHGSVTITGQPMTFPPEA
# T2: soluble B7H3-4Ig (human, UniProt Q5ZPR3 29-466)
# T2 construct: Soluble or immobilized 4Ig form; also called 4Ig-B7-H3
# T2 sequence: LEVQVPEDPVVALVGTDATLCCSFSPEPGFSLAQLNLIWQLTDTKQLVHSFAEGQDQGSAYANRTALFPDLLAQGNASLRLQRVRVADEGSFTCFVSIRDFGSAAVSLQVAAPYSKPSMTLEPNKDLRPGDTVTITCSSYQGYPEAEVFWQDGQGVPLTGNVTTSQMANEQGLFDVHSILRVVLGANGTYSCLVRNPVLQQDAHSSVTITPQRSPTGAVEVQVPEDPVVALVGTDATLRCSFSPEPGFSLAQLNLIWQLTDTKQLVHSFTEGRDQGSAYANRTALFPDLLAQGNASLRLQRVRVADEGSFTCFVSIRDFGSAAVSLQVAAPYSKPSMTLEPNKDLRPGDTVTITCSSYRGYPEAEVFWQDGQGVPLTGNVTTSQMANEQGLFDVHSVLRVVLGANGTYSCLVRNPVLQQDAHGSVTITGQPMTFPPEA
# B1: PRCA157 (antibody, IgG1, V domains shown)
# VH: EVQQVESGGDLVKPGGSLKLSCAASGFTFSSYGMSWVRQTPDKRLEWVATINSGGSNTYYPDSLKGRFTISRDNAKNTLYLQMRSLKSEDTAMYYCARHDGGAMDYWGQGTSVTVSS
# VL: DIQMTQSPASLSVSVGETVTITCRASESIYSYLAWYQQKQGKSPQLLVYNTKTLPEGVPSRFSGSGSGTQFSLKINSLQPEDFGRYYCQHHYGTPPWTFGGGTNLEIK
# notes: murine mAb, IgG1/k
# B2: BRCA84D (antibody, IgG1, V domains shown)
# VH: DVQLVESGGGLVQPGGSRKLSCAASGFTFSSFGMHWVRQAPEKGLEWVAYISSDSSAIYYADTVKGRFTISRDNPKNTLFLQMTSLRSEDTAMYYCGRGRENIYYGSRLDYWGQGTTLTVSS
# VL: DIAMTQSQKFMSTSVGDRVSVTCKASQNVDTNVAWYQQKPGQSPKALIYSASYRYSGVPDRFTGSGSGTDFTLTINNVQSEDLAEYFCQQYNNYPFTFGSGTKLEIK
# notes: murine mAb, IgG1/k; fluorescein-labeled in the FACS MFI columns
# Legend:
# soluble B7H3-2Ig = molecular target: T1, soluble B7H3-2Ig; test: Specificity
# soluble B7H3-4Ig = molecular target: T2, soluble B7H3-4Ig; test: Specificity
binder,measurement,setting,value
B1,binding result,soluble B7H3-2Ig,binds
same,binding result,soluble B7H3-4Ig,binds
B2,binding result,soluble B7H3-2Ig,binds
same,binding result,soluble B7H3-4Ig,binds
